Changes are numbered by the printed parent chain. Values joined by “and” are separate entries in the source; they are usually repeats but may differ in a detail not shown here. Identical values can stand only once. Each block holds one binder with its values, some of them ahead of it.
Columns and labels:
[1] = biological target: T1, IL-1β (UniProt P01584 117-269); assay: indirect ELISA, factor coated at 1 µg/ml
T1 construct: Purchased coating factor
Procedure: (§1) The specific experimental process is as follows: C5, C3, C3b, rIFN γ (recombinant human interferon γ), IL-1α, IL-1β, IL-2, IL-4 and IL-8 (purchased from Inshore Technology, respectively) were mixed with PBS. Co., Ltd.), dilute the antigen to 1 μg/ml; add 100 μl/well of the diluted antigen to a 96-well plate, cover, overnight at 4° C.; shake off the liquid in the well, wash three times with PBS, 200 μl/well, manually Pat dry; block with 200 μl/well of 5% milk, block for 1 h, tap the edge of the ELISA plate every 15 minutes to promote the reaction; shake off the liquid in the well, wash once with PBS, 200 μl/well, pat dry by hand; add different light chains Heavy chain combination antibody, diluted in 5% milk, 100 μl/well, incubated for 1 h, tap the edge of the ELISA plate every 15 min to promote the reaction; shake off the liquid in the well, wash three times with PBS, 200 μl/well, pat dry by hand; add Goat anti-human secondary antibody, diluted in 5% milk, 100 μl/well; incubate for 1 h, tap the edge of the ELISA plate every 15 min to promote the reaction; preheat the TMB substrate at room temperature, and turn on the microplate reader to preheat; wash 5 times with PBS, 250 μl/well, the first three times 5 min, the last two times 10 min, pat dry by hand; add 50 μl/well of TMB substrate AB to each well, and develop color at room temperature for 20 min; use a scanner to scan and record the pictures, add 50 μl/well of stop solution, use enzyme The standard instrument reads OD450 and archives.

[2] = biological target: T2, rIFN γ (recombinant human interferon γ) (human, UniProt P01579 24-166, limits assumed); assay: indirect ELISA, factor coated at 1 µg/ml
T2 construct: Purchased coating factor
T2 sequence (looked up): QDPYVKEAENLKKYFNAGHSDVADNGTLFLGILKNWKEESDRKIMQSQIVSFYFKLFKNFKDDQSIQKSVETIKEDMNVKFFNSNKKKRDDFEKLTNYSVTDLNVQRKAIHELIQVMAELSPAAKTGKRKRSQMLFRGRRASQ
Procedure: as §1

[3] = biological target: T3, IL-8 (UniProt P10145 28-99, limits assumed); assay: indirect ELISA, factor coated at 1 µg/ml
T3 construct: Purchased coating factor
T3 sequence (looked up): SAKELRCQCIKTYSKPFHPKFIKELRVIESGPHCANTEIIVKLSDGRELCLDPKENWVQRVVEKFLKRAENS
Procedure: as §1

[4] = biological target: T4, C3 (UniProt P01024 23-1663, limits assumed); assay: indirect ELISA, factor coated at 1 µg/ml
T4 construct: Purchased coating factor
T4 sequence (P01024 23-1663 limits assumed): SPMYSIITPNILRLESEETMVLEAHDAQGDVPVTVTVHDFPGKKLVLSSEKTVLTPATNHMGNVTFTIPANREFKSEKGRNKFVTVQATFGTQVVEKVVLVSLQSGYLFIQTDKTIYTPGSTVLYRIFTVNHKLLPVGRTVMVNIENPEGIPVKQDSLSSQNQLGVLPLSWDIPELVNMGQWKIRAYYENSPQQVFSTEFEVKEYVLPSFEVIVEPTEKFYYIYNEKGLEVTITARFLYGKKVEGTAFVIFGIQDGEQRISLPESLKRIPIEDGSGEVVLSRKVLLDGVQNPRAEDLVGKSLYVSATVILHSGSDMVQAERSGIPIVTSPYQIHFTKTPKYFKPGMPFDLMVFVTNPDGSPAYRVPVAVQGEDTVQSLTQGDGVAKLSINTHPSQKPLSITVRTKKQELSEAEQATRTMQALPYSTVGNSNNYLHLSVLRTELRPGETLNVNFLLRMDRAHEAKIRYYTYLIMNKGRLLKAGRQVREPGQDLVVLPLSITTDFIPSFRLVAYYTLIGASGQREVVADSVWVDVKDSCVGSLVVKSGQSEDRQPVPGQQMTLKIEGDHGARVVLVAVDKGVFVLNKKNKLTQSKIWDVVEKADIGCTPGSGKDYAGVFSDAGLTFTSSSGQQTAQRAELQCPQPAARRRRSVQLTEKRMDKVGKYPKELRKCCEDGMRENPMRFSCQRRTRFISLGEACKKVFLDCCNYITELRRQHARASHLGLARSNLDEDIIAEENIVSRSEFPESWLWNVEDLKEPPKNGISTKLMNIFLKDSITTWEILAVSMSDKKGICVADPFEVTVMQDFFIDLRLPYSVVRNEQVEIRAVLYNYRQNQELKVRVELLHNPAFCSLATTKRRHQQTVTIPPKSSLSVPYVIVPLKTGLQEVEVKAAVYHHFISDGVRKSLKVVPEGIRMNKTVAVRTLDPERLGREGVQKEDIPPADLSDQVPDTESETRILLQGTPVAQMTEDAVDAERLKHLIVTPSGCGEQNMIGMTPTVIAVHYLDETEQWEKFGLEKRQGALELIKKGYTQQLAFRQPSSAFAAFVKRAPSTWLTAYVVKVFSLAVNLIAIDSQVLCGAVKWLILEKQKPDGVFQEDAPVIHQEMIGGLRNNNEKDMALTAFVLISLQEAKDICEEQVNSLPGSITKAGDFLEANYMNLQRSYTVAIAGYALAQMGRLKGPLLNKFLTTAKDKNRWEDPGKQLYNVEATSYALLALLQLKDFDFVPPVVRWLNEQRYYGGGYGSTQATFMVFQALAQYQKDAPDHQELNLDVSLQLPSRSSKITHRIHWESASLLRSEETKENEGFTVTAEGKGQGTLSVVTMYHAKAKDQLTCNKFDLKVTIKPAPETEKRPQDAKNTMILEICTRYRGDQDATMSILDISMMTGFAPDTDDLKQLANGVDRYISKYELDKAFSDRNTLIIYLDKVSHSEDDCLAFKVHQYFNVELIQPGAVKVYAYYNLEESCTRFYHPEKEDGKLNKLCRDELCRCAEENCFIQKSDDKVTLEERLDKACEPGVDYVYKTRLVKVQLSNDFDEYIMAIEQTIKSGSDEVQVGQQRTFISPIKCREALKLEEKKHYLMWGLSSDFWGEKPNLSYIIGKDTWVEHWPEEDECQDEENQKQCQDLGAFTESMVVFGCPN
Procedure: as §1

[5] = biological target: T5, IL-4 (UniProt P05112 25-153); assay: indirect ELISA, factor coated at 1 µg/ml
T5 construct: Purchased coating factor
T5 sequence (looked up): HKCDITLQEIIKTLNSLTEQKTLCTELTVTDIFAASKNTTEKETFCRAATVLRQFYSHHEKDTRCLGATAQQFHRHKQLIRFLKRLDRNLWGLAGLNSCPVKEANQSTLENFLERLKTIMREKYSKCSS
Procedure: as §1

[6] = biological target: T6, IL-1α (UniProt P01583 113-271); assay: indirect ELISA, factor coated at 1 µg/ml
T6 construct: Purchased coating factor
T6 sequence (looked up): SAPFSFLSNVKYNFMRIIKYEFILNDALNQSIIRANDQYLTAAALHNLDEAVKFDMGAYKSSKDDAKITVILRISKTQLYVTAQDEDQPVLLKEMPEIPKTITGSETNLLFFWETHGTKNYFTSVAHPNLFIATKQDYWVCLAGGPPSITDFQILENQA
Procedure: as §1

[7] = biological target: T7, IL-2 (UniProt P60568 21-153); assay: indirect ELISA, factor coated at 1 µg/ml
T7 construct: Purchased coating factor
T7 sequence (P60568 21-153 limits assumed): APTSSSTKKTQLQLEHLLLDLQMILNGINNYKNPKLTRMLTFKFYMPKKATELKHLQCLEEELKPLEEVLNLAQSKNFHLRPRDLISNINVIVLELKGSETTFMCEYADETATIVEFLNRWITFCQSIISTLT
Procedure: as §1

[8] = biological target: T8, complement protein C5 (human, UniProt P01031 19-1676, limits assumed); assay: indirect ELISA, C5 coated at 0.3 µg/ml
T8 construct: Purchased antigen coated on the ELISA plate; Natural C5 is processed into beta and alpha chains from one precursor; also called human C5
T8 sequence (P01031 19-1676 limits assumed): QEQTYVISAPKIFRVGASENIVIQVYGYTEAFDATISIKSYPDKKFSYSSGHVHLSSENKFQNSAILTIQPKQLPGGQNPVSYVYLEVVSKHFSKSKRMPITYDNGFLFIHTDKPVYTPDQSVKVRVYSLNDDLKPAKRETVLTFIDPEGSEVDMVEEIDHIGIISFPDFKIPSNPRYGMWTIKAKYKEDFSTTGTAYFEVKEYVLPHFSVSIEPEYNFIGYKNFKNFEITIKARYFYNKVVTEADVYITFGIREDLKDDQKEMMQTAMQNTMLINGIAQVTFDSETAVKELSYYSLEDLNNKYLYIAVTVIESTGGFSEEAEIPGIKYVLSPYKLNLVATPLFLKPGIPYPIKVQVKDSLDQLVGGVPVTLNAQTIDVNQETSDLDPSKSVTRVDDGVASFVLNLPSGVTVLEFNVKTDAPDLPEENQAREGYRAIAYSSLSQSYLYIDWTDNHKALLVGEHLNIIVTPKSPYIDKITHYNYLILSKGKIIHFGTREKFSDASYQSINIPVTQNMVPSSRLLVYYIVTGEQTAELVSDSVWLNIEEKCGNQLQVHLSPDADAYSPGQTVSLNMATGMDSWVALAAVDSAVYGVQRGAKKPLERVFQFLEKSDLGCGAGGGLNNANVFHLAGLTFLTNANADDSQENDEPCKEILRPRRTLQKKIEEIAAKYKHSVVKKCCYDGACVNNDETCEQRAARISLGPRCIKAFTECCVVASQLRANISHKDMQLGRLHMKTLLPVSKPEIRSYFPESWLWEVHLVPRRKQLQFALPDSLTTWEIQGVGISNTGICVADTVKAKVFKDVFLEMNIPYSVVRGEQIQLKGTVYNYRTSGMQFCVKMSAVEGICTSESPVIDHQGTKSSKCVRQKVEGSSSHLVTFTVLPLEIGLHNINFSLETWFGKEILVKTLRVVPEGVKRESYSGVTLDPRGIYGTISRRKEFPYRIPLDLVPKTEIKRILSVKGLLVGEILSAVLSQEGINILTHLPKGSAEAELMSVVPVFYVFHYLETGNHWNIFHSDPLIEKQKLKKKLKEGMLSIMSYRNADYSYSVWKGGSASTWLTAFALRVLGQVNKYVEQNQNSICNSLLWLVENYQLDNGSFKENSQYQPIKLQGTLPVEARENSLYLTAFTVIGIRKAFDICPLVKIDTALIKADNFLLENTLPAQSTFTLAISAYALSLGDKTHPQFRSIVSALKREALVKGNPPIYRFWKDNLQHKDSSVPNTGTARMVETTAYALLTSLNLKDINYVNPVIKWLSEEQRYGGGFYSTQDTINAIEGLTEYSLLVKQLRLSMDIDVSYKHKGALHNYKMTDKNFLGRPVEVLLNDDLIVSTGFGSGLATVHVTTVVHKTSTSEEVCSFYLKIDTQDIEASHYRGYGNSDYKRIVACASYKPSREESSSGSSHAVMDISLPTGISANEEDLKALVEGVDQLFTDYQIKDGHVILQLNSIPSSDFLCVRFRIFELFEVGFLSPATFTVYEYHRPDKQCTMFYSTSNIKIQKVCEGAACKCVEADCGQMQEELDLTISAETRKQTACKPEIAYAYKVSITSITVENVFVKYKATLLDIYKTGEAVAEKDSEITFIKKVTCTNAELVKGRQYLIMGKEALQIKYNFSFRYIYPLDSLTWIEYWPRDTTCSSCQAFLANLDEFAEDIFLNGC
Procedure: The experimental method is as follows: Dilute the antigen with C5 (purchased from Nearshore Technology Co., Ltd.) to 0.3 μg/ml with PBS; add 100 μl/well of the diluted antigen to a 96-well plate, cover, overnight at 4° C.; shake off The liquid in the well was washed three times with PBS, 200 μl/well, and patted dry; blocked with 5% milk-PBS 200 μl/well for 1 hour, and tapped every 15 minutes; the liquid in the well was shaken off, washed once with PBS, 200 μl/well, and patted dry; Add purified antibody (0-10 μg/ml) in a gradient, see Table 4 for antibody name, 5% milk-PBS dilution, 100 μl/well, incubate for 1 h, tap every 15 min; shake off the liquid in the well, wash three times with PBS, 200 μl/well, pat dry; add secondary antibody, diluted in 5% milk-PBS, 100 μl/well, incubate for 1 h, tap every 15 min; preheat TMB substrate at room temperature, and turn on the microplate reader to preheat; wash 5 times with PBS, 250μl/well, the first three times 5 min, the last two times 10 min, pat dry; add 50 μl/well of TMB substrate AB each, and develop color at room temperature for 20 min; use a scanner to scan and record the picture, add 50 μl/well of stop solution, use enzyme labeling The meter reads OD450.

binding result [1]: no binding | binding result [2]: no binding | binding result [3]: no binding | binding result [4]: no binding | binding result [5]: no binding | binding result [6]: no binding | binding result [7]: no binding | EC50 [8]: 0.00382 µg/mL and 0.0255 nM
B1: Improved Eculizumab monoclonal antibody H1L0 (antibody, human IgG1, kappa, V domains shown)
VH: QVQLVQSGGGVVQPGASVKVSCKASGYIFSNYWIQWVRQAPGQGLEWMGEILPGSGSTEYTENFKDRVTMTRDTSTSTVYMELSSLRSEDTAVYYCARYFFGSSPNWYFDVWGQGTLVTVSS
VL: DIQMTQSPSSLSASVGDRVTITCGASENIYGALNWYQQKPGKAPKLLIYGATNLADGVPSRFSGSGSGTDFTLTISSLQPEDFATYYCQNVLNTPLTFGQGTKVEIKR
notes: also called Improved H1L0; H1L0 (Improved)

binding result [1]: no binding | binding result [2]: no binding | binding result [3]: no binding | binding result [4]: no binding | binding result [5]: no binding | binding result [6]: no binding | binding result [7]: no binding
B2: Improved Eculizumab monoclonal antibody H3L0 (antibody, human IgG1, kappa, V domains shown)
VH: B1 VH with M70L, R72T, T74S, S77T, V79A, S84K, R87Q, S88F, E89D
VL: B1 VL
notes: also called Improved H3L0; H3L0 (Improved)
